In patent US20180201910:

How the values were obtained:
[1] = target: T1, ferredoxin encoded by FD gene 5 (Fd4), YP_001864061, Nostoc punctiforme PCC 73102
T1 chain: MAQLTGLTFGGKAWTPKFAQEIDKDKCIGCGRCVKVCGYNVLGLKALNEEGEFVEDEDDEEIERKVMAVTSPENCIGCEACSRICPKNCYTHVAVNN

[2] = target: T2, ferredoxin encoded by FD gene 2 (Fd6), YP_001864826, Nostoc punctiforme PCC 73102
T2 chain: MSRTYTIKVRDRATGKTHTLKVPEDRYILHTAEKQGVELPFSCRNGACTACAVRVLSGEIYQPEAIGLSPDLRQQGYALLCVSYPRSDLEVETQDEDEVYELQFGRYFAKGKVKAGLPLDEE

[3] = target: ferredoxin encoded by FD gene 4 (Fd8), YP_001867060, Nostoc punctiforme PCC 73102
Chain of ferredoxin encoded by FD gene 4 (Fd8), YP_001867060, Nostoc punctiforme PCC 73102 (chain, as listed by the source): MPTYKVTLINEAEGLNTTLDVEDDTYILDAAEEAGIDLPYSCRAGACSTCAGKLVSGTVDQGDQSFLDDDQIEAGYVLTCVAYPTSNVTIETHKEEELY

[4] = target: T3, ferredoxin encoded by FD gene 3 (Fd7), YP_001865513, Nostoc punctiforme PCC 73102
T3 chain: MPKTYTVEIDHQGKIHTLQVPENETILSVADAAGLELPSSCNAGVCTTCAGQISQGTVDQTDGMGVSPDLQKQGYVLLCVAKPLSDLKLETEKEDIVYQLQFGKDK

[5] = target: T4, ferredoxin encoded by FD gene 1 (Fd5), YP_001864105, Nostoc punctiforme PCC 73102
T4 chain: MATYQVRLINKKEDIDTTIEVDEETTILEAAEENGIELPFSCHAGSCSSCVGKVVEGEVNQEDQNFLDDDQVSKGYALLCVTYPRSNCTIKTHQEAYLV

| Protein | amount of alkane production 3 days after the initiation of culture compared with the amount of Strain No. 2 (E. coli Rosetta co-expressing decarbonylase and acyl-ACP reductase, GC/MS) [1] | amount of alkane production 3 days after the initiation of culture compared with the amount of Strain No. 2 (E. coli Rosetta co-expressing decarbonylase and acyl-ACP reductase, GC/MS) [2] [times] | amount of alkane production 3 days after the initiation of culture compared with the amount of Strain No. 2 (E. coli Rosetta co-expressing decarbonylase and acyl-ACP reductase, GC/MS) [3] | amount of alkane production 3 days after the initiation of culture compared with the amount of Strain No. 2 (E. coli Rosetta co-expressing decarbonylase and acyl-ACP reductase, GC/MS) [4] | amount of alkane production 3 days after the initiation of culture compared with the amount of Strain No. 2 (E. coli Rosetta co-expressing decarbonylase and acyl-ACP reductase, GC/MS) [5] | effects of improving the alkane productivity in the E. coli JM109 strain [4] | effects of improving the alkane productivity in the Klebsiella sp. 100048 strain [4] |
| --- | --- | --- | --- | --- | --- | --- | --- |
| ferredoxin reductase encoded by FDR gene 1 (FDR1), YP_001865390, Nostoc punctiforme PCC 73102 (protein) MNSPVYQTVIVGGGFTGLFTALHLAHEHYPRSVILIDKDERFCFKPLLYEYFDGEMDTFQVVPRFSELLKGSGVIFVQDTVQSINLHQREVKLASGNSYNYSNLVLALGSVTGYHQVEGARENAFPFWTQADAIALDRHLRDCLQKAVQTEDVEQRRKLLTVVIVGGGASGVEMAATLADFLPHWYSALGGNSSEIRVVLLNHGKEILDGDINNPLREIAERELNKRAVPIEMIVEAEATAIGSTSIQYKRNEQIETLATHTTVWTAGTSTHPLIKDLPIPKEHRDRRDRPLVTPNLQLLDFPEVFVGGDCAAVQDNSLPPTAQVAYQQGANIAQNLKALALGEEPKPAKVNIRGTLLKLGINDAAANLFNVFEVVGETAHLIRQGTYLTLLPAPIHDFKATTEWVDEEVFHQHLDPHDVGKKVVQAAEIVGVGVVGILAARKLLKMLGDEDKNSK | x | 2.4 | 2.6 times | x | 2.5 times | – | – |
| ferredoxin reductase encoded by FDR gene 3 (FDR3), YP_001868825, Nostoc punctiforme PCC 73102 (protein) MSFTSMPSLREQQHPLIRQLADCIEAAWHQHLDLSPYHLPDELGYVEGRLEGEKLTIENRCYQTPQFRKMHLELANIGNMLDILHCVMFPRPQYNLPMFGCDLVGGRGQISAAIADLSPIQLERTLPESYTTALAQLPVLNFSQPRELPEWGNIFSDFCIFVRPGSPEEEAMFLSRVREFLDIHCMQAIASHPVSVEQVTQNLAGQHNYCTKQQQNDKTRRVLEKAFGPVWAENYMTTVLFDLPT | x | 3.4 | x | 2.0 times | x | – | – |
| ferredoxin reductase encoded by FDR gene 2 (FDR2), YP_001866231, Nostoc punctiforme PCC 73102 (protein) MYNQGAVEGAANIELGSRIFVYEVVGLRQGEETDQTNYPIRKSGSVFIRVPYNRMNQEMRRITRLGGTIVSIQPITALEPVNGKASFGNATSVVSELAKSGETANSEGNGKATPVNAHSAEEQNKDKKGNTMTQAKAKKDHGDVPVNTYRPNAPFIGKVISNEPLVKEGGIGIVQHLKFDLSGGDLKYIEGQSIGIIPPGLDKNGKPEKLRLYSIASTRHGDDVDDKTVSLCVRQLEYKHPETGETVYGVCSTHLCFLKPGEEVKITGPVGKEMLLPNDPDANVIMMATGTGIAPMRAYLWRQFKDAERAANPEYQFKGFSWLIFGVPTTPNLLYKEELEEIQQKYPENFRLTAAISREQKNPQGGRMYIQDRVAEHADELWQLIKNEKTHTYICGLRGMEEGIDAALTAAAAKEGVTWSDYQKQLKKAGRWHVETY | x | 2.5 | 3.0 times | 3.8 times | 1.9 times | two times greater in the E. coli JM109 strain | 4 times greater than the effects in the Klebsiella sp. 100048 strain |
